Tests used:
[1] = target: soluble human DPP4 (sDPP4) receptor (human) (UniProt P27487); test: ELISA, RBD-Fc coated at 1 µg/ml, sDPP4 serially diluted
[2] = target: bat ACE2 (bACE2) receptor transiently expressed on 293T cells (bat)

soluble human DPP4 (sDPP4) receptor (human), sequence (P27487 39-766 limits assumed): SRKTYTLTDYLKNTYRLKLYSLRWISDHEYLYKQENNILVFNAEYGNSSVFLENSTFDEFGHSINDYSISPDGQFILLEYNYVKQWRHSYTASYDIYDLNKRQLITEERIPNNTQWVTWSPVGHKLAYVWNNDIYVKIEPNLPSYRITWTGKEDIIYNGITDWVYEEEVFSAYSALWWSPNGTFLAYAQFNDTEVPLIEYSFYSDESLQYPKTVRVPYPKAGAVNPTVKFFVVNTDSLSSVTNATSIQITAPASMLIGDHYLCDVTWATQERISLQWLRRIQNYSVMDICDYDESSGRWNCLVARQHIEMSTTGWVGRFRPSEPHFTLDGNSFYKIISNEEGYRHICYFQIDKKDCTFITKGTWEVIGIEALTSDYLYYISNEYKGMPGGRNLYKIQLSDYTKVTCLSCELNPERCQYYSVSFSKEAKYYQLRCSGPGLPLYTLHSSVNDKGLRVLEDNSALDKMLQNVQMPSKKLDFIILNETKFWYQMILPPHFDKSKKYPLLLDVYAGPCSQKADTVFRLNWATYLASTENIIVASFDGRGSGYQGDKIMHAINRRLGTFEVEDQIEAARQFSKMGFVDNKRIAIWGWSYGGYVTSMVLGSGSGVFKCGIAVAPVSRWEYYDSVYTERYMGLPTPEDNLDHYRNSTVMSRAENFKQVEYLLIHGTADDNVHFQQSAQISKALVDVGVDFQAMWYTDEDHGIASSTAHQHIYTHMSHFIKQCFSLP

MERS-CoV RBD-Fc fusion protein (residues 377-588 of MERS-CoV S protein with a C-terminal hFc) (from UniProt K9N5Q8 377-588)
EC50 [1]: 0.92 µg/mL

SARS-CoV RBD-Fc fusion protein (residues 318-510 of SARS-CoV S protein with a C-terminal hFc) (from UniProt P59594 318-510)
EC50 [2]: 0.96 µg/mL
